Fewer inactive variants are shown than the library holds.
B1: TPR 5TU (parent)
chain: GGAUCUUCUCGAUCUAACAAAAAAGACAAAUCUGCCACAAAGCUUGAGAGCAUCUUCGGAUGCAGAGGCGGCAGCCUUCGGUGGCGCGAUAGCGCCAACGUUCUCAACUAUGACACGCAAAACGCGUGCUCCGUUGAAUGGAGUUUAUCAUG

Variants of: B1
Assay: polymerase ribozyme fitness, log enrichment relative to wild type (log ratio); higher = more active; in vitro selection for triplet polymerase activity
Method in brief: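 For each subunit of a heterodimeric triplet polymerase ribozyme, a mutant library was built by PCR and transcribed, then taken through a single in vitro selection round in triplicate. Selection involved annealing to a biotinylated primer, the partner subunit and triplets, incubation frozen at −7 °C, gel excision of extended constructs, capture on streptavidin beads and RT-PCR. Genotypes were retained after Illumina sequencing of inputs and outputs only with ≥10 input reads and ≥1 read in each output. Fitness is defined as the logarithm of a genotype's enrichment relative to wild-type enrichment, using inverse-variance-weighted averages across replicates, with the logarithm taken to base 2.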

Point of comparison: G58C A107C, “polymerase ribozyme fitness (log ratio)” value -4.06. Against it:
- A39C A89U C116U — higher, -2.02
- G94A C96U C99G U144G — lower, ≤ -4.2
- U4G A19U C43U C87U A98G — lower, ≤ -4.2
- A16C A37C A40C C63U A64U C69G C76U G141C — lower, ≤ -4.2
- G83C C118A A142G — higher, -2.35
- A30U C54U C85U — within 0.2 log units, -3.87
- A26G G92U — higher, -3.31
- G88A C96A C125U G126U — lower, ≤ -4.2
- G11A U31A — higher, -0.715
- A41C A52G G62C C95G C131A A142U C149A — lower, ≤ -4.2
- U56G G84U A97U C99G G133U — lower, ≤ -4.2
- A52C G86C — within 0.2 log units, -4.07
- U61C G92A A120C C123A U144C — lower, ≤ -4.2
- C35U A40G C51U G81C C87A — lower, ≤ -4.2
- G42A G88C — lower, ≤ -4.2
- A40C G50A — higher, -2.43
- C18U G84A U102A C123G — higher, -2.76
- A16C A26G C35A A52G C87U — within 0.2 log units, -3.98
- A26C A41C C57G — higher, -3.4
- A41U C75A C93U — lower, ≤ -4.2
- U4G C8G A23C A52G C54G G74C — lower, ≤ -4.2
- C18A A29U G136A — lower, ≤ -4.2
- A52C U56C C57A G67A C85U A97U U146G U151G — lower, ≤ -4.2
- G65A C69G U78A U90G C96A G100A C108A U145A — lower, ≤ -4.2
- A19U A20C A26U C85U C118A C125U U134G G143A — lower, ≤ -4.2
- A3C G58A C87U — higher, -0.495
- U45A U82A A106G A122G U148G — lower, ≤ -4.2
- A73U C96A U109A C116U — higher, -3.64
- G124A A137G — higher, -1.05
- C57A G83C G141A — higher, -0.777
- A30U C38G G50C C87G G117A — lower, ≤ -4.2
- A41C G50A A52C C54U U56A C75U C87U U146G A150G — lower, ≤ -4.2
- A37U U78G U90C U101G U104G — lower, ≤ -4.2
- U6C C54G C93A C116G G141A — within 0.2 log units, -4.17
- C32U U61A G94C C105U A107U A110U — lower, ≤ -4.2
- U4A C18U A64C G68A C79G — lower, ≤ -4.2
- G48C A113C U148C — lower, ≤ -4.2
- C18U C36A — within 0.2 log units, -4.01
- G83U G100U — within 0.2 log units, -3.9
- U6C — higher, -0.0891
- A21U C105G A113G C116U — within 0.2 log units, -4.07
- C96U A119C G141A — higher, 0.872
- U56A C85U A121U C123G G124A U134A — higher, -2.61
- C8U U31G — higher, -3.21
- A23G C27U A29C C32A C36G C85U C95A U127G — within 0.2 log units, -4.14
- A12C G59A G84A C118U A121G A122C G126U — higher, -3.86
- A21G A52C G83U G84A U90C C95G G100A C103G A107U U139G — lower, ≤ -4.2
- U61G U101C — higher, -2.61
- A22G C54U G58A G59A C103G — higher, -1.91
- U7C U9G C54U A107C U127A — lower, ≤ -4.2
- A24C U53A U55A A98U G126A C149G — lower, ≤ -4.2
- C36A A39C U56C C87U U144G — lower, ≤ -4.2
- U44A U53A G86U C132U U135G — lower, ≤ -4.2
- C8U U15G A17G A30G U44G C76A C87A — lower, ≤ -4.2
- U56G G68U G81A G84A A91C U135C — lower, ≤ -4.2
- C93U C103A C105U A120G U134C — within 0.2 log units, -3.94
- G50A A107U — within 0.2 log units, -4.13
- U15G C72U C87A U134A A150C U151G — lower, ≤ -4.2
- C38U C76G — lower, ≤ -4.2
- A22C A47U C54U G86U C103A — lower, ≤ -4.2
- A20U U31G C43G A52U A73C C93U G94U C116G A121G C149U — lower, ≤ -4.2
- U13G A19U A49U C54G A89G C93U U127C — lower, ≤ -4.2
- U31C G50A C96G — higher, -0.777
- C38U C96G A142U U146A — higher, -1.67
- U56A G117A — higher, -0.176
- A41G C54G U104A A119G G126U — higher, -1.16
- C5U C51A G58A G81C — higher, -1.81
- A137C — higher, -3.09
- C75A C76U G86U A106U G126A U148C C149A — lower, ≤ -4.2
- U139A G143U U146G — higher, -3.74
- G48A A49U G70U C75A G88A — lower, ≤ -4.2
- G92A C103U — higher, -2.02
- C54U C96A C105U — higher, 0.0167
- C93A G117U — higher, -1.92
- C14U A28U A122G G141C — within 0.2 log units, -4.15
- C57G U146A — higher, -0.273
- U9C A17U A30G G42C C51A C87U — lower, ≤ -4.2
- A3C U101G C105U A138C — within 0.2 log units, -4.17
- A20U A89U — higher, -2.12
- G25U C96A A142G — within 0.2 log units, -4.05
- A49C G68A — lower, ≤ -4.2
- C35U G58C G71A C93G — higher, -3.09

— the RNAGym collection of RNA variant scans (doi:10.1073/pnas.2313332121)
